The results in this text go back to patent US20250092108A1 (published 2025).

The labels stand for the following.
B1: XENP26105 (Fc fusion)
chain 1: EPKSSDKTHTCPPCPAPPVAGPSVFLFPPKPKDTLMISRTPEVTCVVVDVKHEDPEVKFNWYVDGVEVHNAKTKPREEEYNSTYRVVSVLTVLHQDWLNGKEYKCKVSNKALPAPIEKTISKAKGQPREPQVYTLPPSREEMTKNQVSLTCDVSGFYPSDIAVEWESDGQPENNYKTTPPVLDSDGSFFLYSKLTVDKSRWEQGDVFSCSVMHEALHNHYTQKSLSLSPGK
chain 2: APASSSTKKTQLQLEHLLLNLQMILNGINNYKNPKLRRMLTFKFYMPKKATELKHLQCLEEELKPLEEVLNLAQSKNFHLRPRDLISNINVIVLELKGSETTFMCEYADETATIVEFLNRWITFSQSIISTLTEPKSSDKTHTCPPCPAPPVAGPSVFLFPPKPKDTLMISRTPEVTCVVVDVKHEDPEVKFNWYVDGVEVHNAKTKPREEQYNSTYRVVSVLTVLHQDWLNGKEYKCKVSNKALPAPIEKTISKAKGQPREPQVYTLPPSREQMTKNQVKLTCLVKGFYPSDIAVEWESNGQPENNYKTTPPVLDSDGSFFLYSKLTVDKSRWQQGNVFSCSVMHEALHNHYTQKSLSLSPGK
B2: 24638 (Fc fusion)
chain: APTSSSTKKTQLQLEHLLLDLQMILNGISNHKNPRLARMLTFKFYMPEKATELKHLQCLEEELKPLEEALRLAPSKNFHLRPRDLISDVNVIVLELKGSETTFMCEYADETATIVEFLNRWITFSQSIISTLT
B3: XENP14277 (prior art IL-2 variant, mutant 2-4 with Q126T as described in WO 2009/061853, without R38L) (ligand)
chain: APTSSSTKKTQLQLEHLLLDLQMILNGISNHKNPRLARMLTFKFYMPEKATELKHLQCLEEELKPLEEALRLAPSKNFHLRPRDLISDVNVIVLELKGSETTFMCEYADETATIVEFLNRWITFSTSIISTLTHHHHHHHH
B4: XENP14381 (prior art IL-2 variant, mutant 2-4 with Q126T, with R38L) (ligand)
chain: B3 chain with R38L
B5: CD25 (receptor)
chain: ELCDDDPPEIPHATFKAMAYKEGTMLNCECKRGFRRIKSGSLYMLCTGNSSHSSWDNQCQCTSSATRNTTKQVTPQPEEQKERKTTEMQSPMQPVDQASLPGHCREPPPWENEATERIYHFVVGQMVYYQCVQGYRALHRGPAESVCKMTHGKTRWTQPQLICTGEMETSQFPGEEKPQASPEGRPESETSC

Where a chain is given by its changes, count along the chain named. Numbers in names are those of the source. Like-named read-outs stand apart in the source and are kept apart here.

Experiment [1] addresses CD122:CD132. Nature of the experiment: Octet.
The target in experiment [2] is T1, human CD25 (IL-2Rα) (human, UniProt P01589 22-213).
T1 chain: B5 chain
Description: Octet. On the technique in general: BLI is a label-free optical method that tracks binding on a fibre tip over time.

For experiment [3], the target named is CD122:CD132. Nature of the experiment: Octet. This is another data set of the same source.
The target in the experiment “CD25” is B5. Description: Octet.
For experiment [4], the target named is T1, human CD25 (IL-2Rα). Nature of the experiment: Biacore; pH 7.4.
The target of experiment [5] is T1, human CD25 (IL-2Rα). Description: Biacore; pH 6.0. In general terms: In SPR one partner is held on a chip, and binding of the other changes the refractive index at the surface.
For another experiment, the target named is XENP26093. Nature of the experiment: Octet.
A further experiment deals with XENP26096. Description: Octet.
A further experiment addresses XENP26086. Nature of the experiment: Octet.
The target in another experiment is XENP26092. Description: Octet.
The target of another experiment is XENP26088. Nature of the experiment: Octet.
Another experiment deals with XENP26108. Description: Octet.
The target of the next experiment is XENP26089. Description: Octet.
In another experiment the target is XENP26104. Description: Octet.
The target in a further experiment is 24732. Nature of the experiment: Octet.
The target in another experiment is 24641. Description: Octet.
Another experiment concerns the target 24639. Description: Octet.
The next experiment has as its target 24728. Description: Octet.
A further experiment addresses 24643. Description: Octet.
A further experiment concerns the target 24729. Nature of the experiment: Octet.
The target of a further experiment is 24725. Nature of the experiment: Octet.
In the next experiment the target is 24636. Nature of the experiment: Octet.
In another experiment the target is 24640. Nature of the experiment: Octet.

For the molecule B1, the figures for the Kd with CD122:CD132 [1] and with human CD25 (IL-2Rα) [2] were 0.0364 µM and 0.0141 µM, respectively.
Turning to B2, the Kd (usually the concentration at which binding is half-saturated) in the experiment with CD122:CD132 [3] is 0.146 µM; with CD25, 0.00133 µM.
With B3, the Kd came to 0.002 µM with human CD25 (IL-2Rα) [4] and 0.19 µM with human CD25 (IL-2Rα) [5].
Take B4: the Kd with human CD25 (IL-2Rα) [4] came out at 0.0094 µM; in the experiment with human CD25 (IL-2Rα) [5] it was 0.0168 µM.
B5: the Kd was found to be 0.0213 µM with XENP26093; 0.0392 µM with XENP26096; 0.0169 µM with XENP26086; 0.0264 µM with XENP26092; 0.0166 µM in the experiment with XENP26088; 0.0277 µM with XENP26108. In addition, the Kd with XENP26089 stood at 0.0144 µM; with XENP26104, 0.0147 µM; with 24732, 0.0912 µM; in the experiment with 24641 it was 0.0127 µM; with 24639 it was 0.00804 µM; with 24728 it was 0.0418 µM. Besides, the Kd in the experiment with 24643 came to 0.0266 µM; with 24729, 0.0255 µM; with 24725, 0.0196 µM; in the experiment with 24636, 0.0145 µM; with 24640 it was 0.00114 µM.
